Three molecules from patent publication US20150125397A1, “DUAL SPECIFIC BINDING PROTEINS DIRECTED AGAINST IMMUNE CELL RECEPTORS AND AUTOANTIGENS” (ABBVIE INC., priority 2013, published 2015) can be followed below.

In one experiment the target is T1, mIgM (Mus musculus, UniProt P01872).
T1 sequence (P01872 1-454): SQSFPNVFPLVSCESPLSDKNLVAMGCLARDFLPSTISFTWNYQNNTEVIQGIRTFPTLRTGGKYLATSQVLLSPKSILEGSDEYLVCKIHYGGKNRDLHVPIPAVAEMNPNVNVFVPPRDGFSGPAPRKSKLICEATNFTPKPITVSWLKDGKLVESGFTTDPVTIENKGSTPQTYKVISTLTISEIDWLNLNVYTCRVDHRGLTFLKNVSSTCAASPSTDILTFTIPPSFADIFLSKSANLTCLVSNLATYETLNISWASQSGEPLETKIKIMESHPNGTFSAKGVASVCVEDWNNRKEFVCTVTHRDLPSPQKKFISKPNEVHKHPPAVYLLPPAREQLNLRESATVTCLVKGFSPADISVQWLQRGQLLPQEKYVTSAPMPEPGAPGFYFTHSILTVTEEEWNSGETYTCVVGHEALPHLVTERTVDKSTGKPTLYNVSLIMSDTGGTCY
The experiment in a line: IgM binding ELISA (mouse IgM). To be noted: for potency in IgM binding assay: among DVD3751-DVD3760; for IgM Binding EC50: mIgM-coated ELISA, half-log dilution 10 μg/ml-0.01 μg/ml. As for the experimental part:
Reactivity of the DVD-Ig proteins with mIgM was determined by enzyme-linked immunosorbent assay (ELISA). Briefly, each well of an Ultra Cruz 96 well microtiter plate (Santa Cruz Biotechnology, Dallas, Tex.) was coated with mIgM at a concentration of 1 μg/ml in 100 μl of PBS. The plate was covered in plastic wrap and incubated overnight at 4° C. Each well of the plate was then washed 3× with 300 μl of PBST. After the final wash, 200 μl of blocking buffer (1% BSA in PBS) was added to each well and the plate incubated at RT for 2 hours. The plate was then washed as above. Rows B-H of the microtiter plate were filled with 100 μl of dilution buffer (1% BSA in PBST). The DVD-Ig proteins were then diluted to […] in dilution buffer and 147 μl of a DVD-Ig protein was added in duplicate to row A of a 96 well plate. For a ½ log dilution, 47 μl was transferred from row A to row B. The pipette tips were replaced with clean tips and 47 μl from row B was transferred to row C. The serial transfers were repeated as above until row G. To assess the binding of the secondary detection reagent to the coated IgM, the final transfer 47 μl was only transferred from G1-G10 to H1-H10 and wells H11 and H12 were left containing 100 μl of dilution buffer. To maintain a 100 μl assay volume, 47 μl was removed from wells H1-H10 and G11-G12 and discarded. After the serial dilution was completed, the plate was incubated for 1-2 hours at RT. The plate was washed as above and then 100 μl of horseradish peroxidase conjugated goat α-hIgG Fc specific, diluted 1:3,000 in dilution buffer, was added to each well. The plate was incubated for 1 hour at RT and then washed 4× as above. The plate was developed by adding 100 μl of 3′,3′,5′,5′-Tetramethylbenzidine (TMB) substrate solution to each well and incubating the plate in the dark for 10-15 minutes. The enzymatic reaction was stopped by adding 100 μl of 1M H2SO4 to each well. The plate was read at 450 nm on an EnVision 2102 multilabel reader (Perkin Elmer, Waltham, Mass.).
DVD-Ig proteins DVD3751-DVD3760 were characterized by IgM binding assay at half-log dilution starting at 10 μg/ml-0.01 μg/ml according to the method of Example 2.5.
IgM binding ELISA: Titrations of the DVD-Ig™ proteins (10 μg/ml to 0.01 μg/ml) were added to ELISA plates coated with murine IgM. Bound antibody was detected with biotinylated anti-human IgG and streptavidin-HRP. EC50 were calculated from the titration curve using Prism6.
A general note: In an ELISA, binding on a coated surface is turned into a signal by an enzyme label.

A further experiment concerns DNA. Kind of experiment: Antinuclear antibody (ANA) test. It is filed as binding. To be noted: ANA staining at 10 μg/ml. Here is the method: The cloned BWR4 and PA4 antibodies as well as the DVD-Ig proteins were tested for ANA reactivity using the ANA test kit. Briefly, the DVD-Ig proteins and antibodies were diluted to […] in blocking buffer (1% BSA in PBS). The DVD-Ig proteins and antibodies were added to separate wells of an ANA slide at 50 μl/well and incubated in a moist chamber for 2 hours at room temperature (RT). The wells were then washed 3× with PBS. To detect bound antibodies, Alexa Fluor 488 conjugated goat α-human IgG (α-hIgG) was then added at a dilution of 1:1,000 and the slide incubated in a moist chamber for 1 hour. Unbound detecting antibody was removed by immersing the slide in a jar containing PBS and incubating for 10 minutes at RT with gentle rocking. The prior step was repeated 2× and 10 μl of Prolong® Gold Antifade was added to each well and a 24 mm×60 mm #1 cover glass seated on top. The covered slide was incubated overnight at RT and then sealed by applying clear nail polish to the edges. Binding of the DVD-Ig proteins and antibodies to the slides was assessed by fluorescence microscopy.
DVD-Ig proteins DVD3751-DVD3760 were characterized by antinuclear antibody (ANA) staining at 10 μg/ml according to the method of Example 2.4.
ANA: HEp-2 human tissue culture substrate slides were incubated with 5 μg/ml of the anti-DNA-IgG2a or the DVD-Ig™ binding protein for 2 hours at RT. The slides were washed and bound antibodies were detected with Alexa-488 goat anti-human antibody or DyLight 488 goat anti-mouse antibody.

For another experiment, the system named is AM14 WT B cells. The experiment in a line: [3H]thymidine incorporation, BCR/TLR9 stimulation of AM14 WT B cells. It is filed as cell-based, mouse. Also noted: key to 3H incorporation AM14 WT, relative result: (X)-(XXX) indicates relative results; (XX): (X)-(XXX) indicates relative results; (X)-(XXX) indicates relative results; level of 3H incorporation / 3H incorporation AM14 WT: dose or concentration left out as unconfirmed. To be noted: for 3H incorporation AM14 WT: 24 hours, then 6 hours pulse. From the text: (§1) The AM14 B cell receptor (BCR) transgenic mouse has been described previously (Sweet et al. (2010) Autoimmun 43(8): 607-18). Briefly, AM14 is a BCR comprising the AM14 heavy chain and the Vk8 light chain that recognizes murine IgG2a (mIgG2a) of the “a” allotype. Between 95-98% of B cells in a mouse positive for the AM14 heavy chain and Vk8 light chain express the AM14 BCR. To generate AM14 B cells that are deficient in TLR9, TLR7 or FcγRIIB, the AM14 and Vk8 genes were bred to the appropriate knock out mice.
(§2) Primary murine B cells were purified by positive selection using BD Imag™ CD45R/B220 magnetic particles (BD Biosciences, San Jose, Calif.). Briefly, B cells were cultured in RPMI containing, pencillin-streptomycin, β-mercaptoethanol, and 5% heat-inactivated fetal calf serum (FCS) in 96 well flat bottom plates at a density of 4×10^5 cells/well. For stimulation through the BCR and TLR9, B cells were treated with a titration of 0.3 μg/ml-0.03 μg/ml of PA4 or 5 μg/ml to 0.15 μg/ml of a DVD-Ig protein (DVD3751, DVD3752, DVD3754, DVD3755, DVD3759 and DVD3760), unless otherwise noted. Cells were also treated with 1 μg/ml 1826, an experimental ligand for TLR9, as a control. After 24 hours, the cells were pulsed for 6 hours with [3H]thymidine (Perkin Elmer, Waltham Mass.). Incorporation of [3H]thymidine was quantified via a liquid scintillation beta counter (Trilux 1450 MicroBeta, PerkinElmer) according to standard methods.
(§3) DVD-Ig proteins DVD3751-DVD3760 were characterized by ^3H incorporation at […] according to the method of Example 2.6.
Background: Dividing cells build labelled thymidine or BrdU into new DNA.

The subject of the next experiment is AM14 TLR9−/− B cells. The experiment in a line: [3H]thymidine incorporation, BCR/TLR9 stimulation of AM14 TLR9-/- B cells. It is filed as cell-based, mouse. Conditions: at 5 mg/ml; 24 hours, then 6 hours pulse.
Excerpt: as §1, §2, §3

B1: DVD3756: DVD-Ig: VD1 mIgM (B7.6), GS linker, VD2 DNA(PA4); heavy SEQ ID NO 58, light 59 (antibody)
heavy: QVQLKESGPGLVKPSLTLSLTCTVSGFSLNGYGVIWVRQPPGKGLEWMGVIWGNGNTNYNSTLKSRLSISRDTSKSQVFLKMNNLQTEDTAMYFCARSENYYSSPGYFAYWGQGTLVTVSSGGGGSGGGGSEVQLVESGGGLVKPGGSLKLSCVASGFTFSTYAMSWVRQTPTKRLEWVATISRGGVSTYYPDTVKGRFTISRDNAKNTLYLQMSSLRSEDTAMYYCARPPTIVTTWFAYWGQGTLVTVSS
light: NTVMTQSPTSMFISVGDRVTMNCKASQNVGSDVDWYQQKTGQSPKLLISGTSNRYTGVPDRFTGSGSGTDFTLTISNMQAEDLAVYYCLQYNYNPTFGAGTKLELKRGGSGGGGSGDVVMTQTPLSLPVSLGDQASISCRSSQSLVHSNGNTYLHWYLQKPGQSPKLLIYKVSNRFSGVPDRFSGSGSGTDFTLKISRVEAEDLGAYFCSQSTHVPYTFGGPTRLEIKR
In the case of B1, in the experiment with mIgM, the “potency in IgM binding assay” value is “highest potency” and the “IgM Binding EC50” value came to 0.0331 µg/mL. Besides, the ANA score in the experiment on DNA is on record as 1. Further, in the experiment on AM14 WT B cells, the “3H incorporation AM14 WT, relative result” value is “(X)” and the “3H incorporation AM14 WT” value was “(7793)”. The “3H incorporation AM14 TLR9−/−” value with AM14 TLR9−/− B cells is “(459)”.

B2: DVD3757: DVD-Ig: VD1 mIgM (B7.6), SS linker, VD2 DNA(PA4); heavy SEQ ID NO 60, light 61 (antibody)
heavy: QVQLKESGPGLVKPSLTLSLTCTVSGFSLNGYGVIWVRQPPGKGLEWMGVIWGNGNTNYNSTLKSRLSISRDTSKSQVFLKMNNLQTEDTAMYFCARSENYYSSPGYFAYWGQGTLVTVSSASTKGPEVQLVESGGGLVKPGGSLKLSCVASGFTFSTYAMSWVRQTPTKRLEWVATISRGGVSTYYPDTVKGRFTISRDNAKNTLYLQMSSLRSEDTAMYYCARPPTIVTTWFAYWGQGTLVTVSS
light: NTVMTQSPTSMFISVGDRVTMNCKASQNVGSDVDWYQQKTGQSPKLLISGTSNRYTGVPDRFTGSGSGTDFTLTISNMQAEDLAVYYCLQYNYNPTFGAGTKLELKRTVAAPDVVMTQTPLSLPVSLGDQASISCRSSQSLVHSNGNTYLHWYLQKPGQSPKLLIYKVSNRFSGVPDRFSGSGSGTDFTLKISRVEAEDLGAYFCSQSTHVPYTFGGPTRLEIKR
For B2, in the experiment with mIgM, the “potency in IgM binding assay” value is listed as “highest potency” and the “IgM Binding EC50” value was 0.04178 µg/mL. Further, the ANA score in the experiment with DNA turned out to be 1. For the same molecule, in the experiment with AM14 WT B cells, the “3H incorporation AM14 WT, relative result” value was “(X)” and the “3H incorporation AM14 WT” value is listed as “(4063)”. The “3H incorporation AM14 TLR9−/−” value in the experiment with AM14 TLR9−/− B cells is reported as “(382)”.

B3: DVD3760: DVD-Ig: VD1 mIgM (B7.6), LS linker, VD2 DNA(PA4); heavy SEQ ID NO 66, light 67 (antibody)
heavy: QVQLKESGPGLVKPSLTLSLTCTVSGFSLNGYGVIWVRQPPGKGLEWMGVIWGNGNTNYNSTLKSRLSISRDTSKSQVFLKMNNLQTEDTAMYFCARSENYYSSPGYFAYWGQGTLVTVSSASTKGPSVFPLAPEVQLVESGGGLVKPGGSLKLSCVASGFTFSTYAMSWVRQTPTKRLEWVATISRGGVSTYYPDTVKGRFTISRDNAKNTLYLQMSSLRSEDTAMYYCARPPTIVTTWFAYWGQGTLVTVSS
light: NTVMTQSPTSMFISVGDRVTMNCKASQNVGSDVDWYQQKTGQSPKLLISGTSNRYTGVPDRFTGSGSGTDFTLTISNMQAEDLAVYYCLQYNYNPTFGAGTKLELKRTVAAPDVVMTQTPLSLPVSLGDQASISCRSSQSLVHSNGNTYLHWYLQKPGQSPKLLIYKVSNRFSGVPDRFSGSGSGTDFTLKISRVEAEDLGAYFCSQSTHVPYTFGGPTRLEIKR
Regarding B3, in the experiment with mIgM, the “potency in IgM binding assay” value is recorded as “highest potency” and the “IgM Binding EC50” value worked out at 0.03529 µg/mL. The molecule further yielded an ANA score with DNA of 1. Further, in the experiment on AM14 WT B cells, the “3H incorporation AM14 WT, relative result” value is on record as “(X)” and the “3H incorporation AM14 WT” value is on record as “(4335)”. For the same molecule, the “3H incorporation AM14 TLR9−/−” value in the experiment with AM14 TLR9−/− B cells is “(302)”.
